Reference: the supplement of paper PMC10567573

B1: BEX1 (parent)
chain: EENMERIGEEVRQLMEKLREKQLS

Variants of: B1
Assay: protein stability index of a GFP-peptide fusion (GPS, HEK-293T) (PSI 1-6); higher = more stable
Settings: c terminus: a fixed tail appended
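Note: lentivirally expressed fusions sorted by FACS into six bins by GFP to DsRed ratio, PSI derived from sequencing read proportions per bin multiplied by bin number.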

Compared with EENMERIGEEVRQLMEKLREFQLS [K21F], EENMERIGESVRQLMEKLREKQLS [E10S] is lower in protein stability index: 4.64 for the first, 4.31 for the second.

Going from EENMERIAEEVRQLMEKLREKQLS [G8A] to EENMERIGEEVRHLMEKLREKQLS [Q13H], the protein stability index rises from 3.25 to 4.04.

First: ECNMERIGEEVRQLMEKLREKQLS [E2C]
Second: EENPERIGEEVRQLMEKLREKQLS [M4P]
The protein stability index of the first is lower: 4.07 for the first, 5.96 for the second.

Compared with EENMERIGEEVRQLMEKLREKMLS [Q22M], EENMERIGVEVRQLMEKLREKQLS [E9V] is higher in protein stability index: 1.08 for the first, 4.07 for the second.

Compared with EENMERIGEEVRQLMEKLREKQLV [S24V], EENMERIGEEVRQLMEKLREWQLS [K21W] is lower in protein stability index: 4.67 for the first, 4.07 for the second.

Compared with EENMWRIGEEVRQLMEKLREKQLS [E5W], EENMERIGEEVRQLEEKLREKQLS [M15E] is higher in protein stability index: 3.31 for the first, 4.89 for the second.

Compared with EENMERHGEEVRQLMEKLREKQLS [I7H], EENMERIGEEVRQLMEKLREKQLW [S24W] is lower in protein stability index: 5.86 for the first, 3.99 for the second.

Compared with EENDERIGEEVRQLMEKLREKQLS [M4D], RENMERIGEEVRQLMEKLREKQLS [E1R] is lower in protein stability index: 4.81 for the first, 3.55 for the second.

First: EENGERIGEEVRQLMEKLREKQLS [M4G]
Second: EENMERIGEEVRQLMEKLREKALS [Q22A]
The protein stability index of the first is higher: 5.48 for the first, 2.82 for the second.

Compared with EENMEFIGEEVRQLMEKLREKQLS [R6F], EENMERIGIEVRQLMEKLREKQLS [E9I] is higher in protein stability index: 3.72 for the first, 4.39 for the second.

Compared with EENMERIGEECRQLMEKLREKQLS [V11C], EENMERIIEEVRQLMEKLREKQLS [G8I] is lower in protein stability index: 4.19 for the first, 3.62 for the second.

Going from EENMERIGEEVRQLMEKLRETQLS [K21T] to EENMERIGEEVRQLMEKLREKTLS [Q22T], the protein stability index falls from 5.02 to 3.59.

First: EENQERIGEEVRQLMEKLREKQLS [M4Q]
Second: EENMERIGEEVRQLMEKLRWKQLS [E20W]
The protein stability index of the first is higher: 3.58 for the first, 2.19 for the second.

First: EENMERIGEEVRQLMEKLSEKQLS [R19S]
Second: EENMERIGEEVRQLMEKLREKQCS [L23C]
The protein stability index of the first is lower: 4.21 for the first, 4.73 for the second.

First: EENMERIGEEVRPLMEKLREKQLS [Q13P]
Second: EENMERIGEEVRQLMEKLREAQLS [K21A]
The protein stability index of the first is higher: 4.79 for the first, 4.11 for the second.

Going from EENMERIGNEVRQLMEKLREKQLS [E9N] to EENMERIGEEVRELMEKLREKQLS [Q13E], the protein stability index rises from 4.02 to 5.38.

Going from EENMERIGEEVRQLMEDLREKQLS [K17D] to EENMERIGEEVRQLMPKLREKQLS [E16P], the protein stability index falls from 4.76 to 2.69.

Going from EENMERIWEEVRQLMEKLREKQLS [G8W] to EENMERIGEEVRQLMEKLREKQLT [S24T], the protein stability index rises from 3.44 to 4.29.

First: EENMERIGEEVRQLMEKLREKQLC [S24C]
Second: EENMQRIGEEVRQLMEKLREKQLS [E5Q]
The protein stability index of the first is higher: 4.8 for the first, 4.01 for the second.

Compared with EENMERIGEEVRQLMVKLREKQLS [E16V], EENMERIGEEVRQHMEKLREKQLS [L14H] is higher in protein stability index: 3.31 for the first, 5.03 for the second.

Compared with EENMERIGEEVRQLVEKLREKQLS [M15V], EENMERIGEAVRQLMEKLREKQLS [E10A] is lower in protein stability index: 3.78 for the first, 3.09 for the second.

Going from EENMPRIGEEVRQLMEKLREKQLS [E5P] to EENMERRGEEVRQLMEKLREKQLS [I7R], the protein stability index rises from 4.77 to 5.16.

First: EMNMERIGEEVRQLMEKLREKQLS [E2M]
Second: EENMERIGEEVRQCMEKLREKQLS [L14C]
The protein stability index of the first is lower: 4.05 for the first, 4.33 for the second.

Going from NENMERIGEEVRQLMEKLREKQLS [E1N] to EENMERIGEEVRILMEKLREKQLS [Q13I], the protein stability index falls from 4.31 to 4.23.

Going from EENRERIGEEVRQLMEKLREKQLS [M4R] to EENMERIGEEVRMLMEKLREKQLS [Q13M], the protein stability index falls from 4.75 to 4.5.

Going from EENMERIGEEVRQLTEKLREKQLS [M15T] to EENMERIGEEVRQMMEKLREKQLS [L14M], the protein stability index falls from 5.18 to 3.38.

Going from EENMERICEEVRQLMEKLREKQLS [G8C] to EENMERIGEEVRQLMEKLREKCLS [Q22C], the protein stability index falls from 4.73 to 2.46.

Compared with EENMERIGEEVRQYMEKLREKQLS [L14Y], EENMERIKEEVRQLMEKLREKQLS [G8K] is lower in protein stability index: 4.58 for the first, 4.32 for the second.

Compared with EENMERIGEEVRQLFEKLREKQLS [M15F], EEDMERIGEEVRQLMEKLREKQLS [N3D] is lower in protein stability index: 4.08 for the first, 3.5 for the second.

First: EENMRRIGEEVRQLMEKLREKQLS [E5R]
Second: EENMERIGEEVNQLMEKLREKQLS [R12N]
The protein stability index of the first is higher: 4.33 for the first, 4.1 for the second.

Going from EENMERCGEEVRQLMEKLREKQLS [I7C] to EENMERIGEEVRQLMEILREKQLS [K17I], the protein stability index falls from 4.87 to 3.76.

First: EENMERIGEEVRQLMEKLREEQLS [K21E]
Second: EENMERIGEEVSQLMEKLREKQLS [R12S]
The protein stability index of the first is lower: 3.26 for the first, 4.85 for the second.

First: EENMERIGEEVRQLMEKLREKQLG [S24G]
Second: EENMERIGEEVRQLMEKLRLKQLS [E20L]
The protein stability index of the first is higher: 4.78 for the first, 4.29 for the second.

Going from EENMERIGEEVRQLMEKMREKQLS [L18M] to EENMERIGEEVRTLMEKLREKQLS [Q13T], the protein stability index falls from 4.59 to 3.45.

First: EENMERIGEEHRQLMEKLREKQLS [V11H]
Second: EENMERIGEEVRQLMEKLKEKQLS [R19K]
The protein stability index of the first is higher: 5.86 for the first, 4.74 for the second.

First: ESNMERIGEEVRQLMEKLREKQLS [E2S]
Second: EENMERIGEEVRQLMEKLPEKQLS [R19P]
The protein stability index of the first is lower: 4.23 for the first, 5.54 for the second.

First: QENMERIGEEVRQLMEKLREKQLS [E1Q]
Second: EYNMERIGEEVRQLMEKLREKQLS [E2Y]
The protein stability index of the first is higher: 4.41 for the first, 3.72 for the second.

Compared with EENMERIGEEVRQLMEKWREKQLS [L18W], EENMERIREEVRQLMEKLREKQLS [G8R] is lower in protein stability index: 4.84 for the first, 4.18 for the second.

Compared with EENMERIGEEVRQLMEKLREKPLS [Q22P], TENMERIGEEVRQLMEKLREKQLS [E1T] is higher in protein stability index: 3.67 for the first, 4.56 for the second.

Going from EETMERIGEEVRQLMEKLREKQLS [N3T] to LENMERIGEEVRQLMEKLREKQLS [E1L], the protein stability index falls from 3.84 to 3.54.

First: EENMERIGEEVRQLMKKLREKQLS [E16K]
Second: EENMEYIGEEVRQLMEKLREKQLS [R6Y]
The protein stability index of the first is lower: 4.32 for the first, 4.57 for the second.

Going from EENMERIGEEDRQLMEKLREKQLS [V11D] to EENMERIGEEVRGLMEKLREKQLS [Q13G], the protein stability index falls from 5.92 to 5.2.

First: EENMENIGEEVRQLMEKLREKQLS [R6N]
Second: EENMERIGEEVRQLMRKLREKQLS [E16R]
The protein stability index of the first is lower: 3.84 for the first, 3.89 for the second.

Compared with EENMERIGELVRQLMEKLREKQLS [E10L], EENMERIGEEVRQLMEKLREKQLY [S24Y] is lower in protein stability index: 4.63 for the first, 3.91 for the second.

Going from IENMERIGEEVRQLMEKLREKQLS [E1I] to EENMERMGEEVRQLMEKLREKQLS [I7M], the protein stability index rises from 4.77 to 4.83.

First: EENMERIGEFVRQLMEKLREKQLS [E10F]
Second: EENMERIGEEVRQLMEKLNEKQLS [R19N]
The protein stability index of the first is lower: 2.91 for the first, 5.13 for the second.

Compared with EENMERIGEEVRQLMEKCREKQLS [L18C], EENMERIGEEVRQLMEKLLEKQLS [R19L] is lower in protein stability index: 3.82 for the first, 2.82 for the second.
